Article PMC12170185
pKd: −log10 of the molar value.

How the values were obtained:
Assay in all cases: fluorescence anisotropy
Conditions in all cases: FA: 25 mM HEPES pH 7.45, 150 mM NaCl, 5% glycerol, 10 nM probe, temperature not stated, EMSA: 250 nM probe in 25 mM HEPES pH 7.45, 100 mM NaCl
[1] = biological target: UPF2 MIF4G-D3 (UniProt Q9HAU5)
[2] = biological target: UPF2L (UniProt Q9HAU5)
[3] = biological target: UPF2 MIF4G-D1 (UniProt Q9HAU5)
[4] = biological target: UPF2 MIF4G-D1-2 (UniProt Q9HAU5)
UPF2 MIF4G-D1-2, sequence (Q9HAU5 120-757): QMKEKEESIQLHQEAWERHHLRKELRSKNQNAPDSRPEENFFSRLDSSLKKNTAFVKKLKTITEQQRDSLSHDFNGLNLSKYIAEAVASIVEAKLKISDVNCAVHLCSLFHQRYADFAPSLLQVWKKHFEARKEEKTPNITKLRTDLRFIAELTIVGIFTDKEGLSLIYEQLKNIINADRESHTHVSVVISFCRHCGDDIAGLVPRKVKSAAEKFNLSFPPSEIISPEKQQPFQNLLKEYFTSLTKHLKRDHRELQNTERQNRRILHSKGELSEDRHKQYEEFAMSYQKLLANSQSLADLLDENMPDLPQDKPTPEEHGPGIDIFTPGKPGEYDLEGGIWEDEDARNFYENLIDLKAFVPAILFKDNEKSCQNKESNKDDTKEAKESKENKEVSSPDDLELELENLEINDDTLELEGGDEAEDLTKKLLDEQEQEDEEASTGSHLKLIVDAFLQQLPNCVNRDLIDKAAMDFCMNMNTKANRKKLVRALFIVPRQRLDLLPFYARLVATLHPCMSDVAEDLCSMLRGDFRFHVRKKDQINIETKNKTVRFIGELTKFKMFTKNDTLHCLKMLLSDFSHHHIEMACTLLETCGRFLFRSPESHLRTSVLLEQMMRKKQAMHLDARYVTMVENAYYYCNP

[5] = biological target: UPF2 MIF4G-D2 (UniProt Q9HAU5)
UPF2 MIF4G-D2, sequence (Q9HAU5 455-757): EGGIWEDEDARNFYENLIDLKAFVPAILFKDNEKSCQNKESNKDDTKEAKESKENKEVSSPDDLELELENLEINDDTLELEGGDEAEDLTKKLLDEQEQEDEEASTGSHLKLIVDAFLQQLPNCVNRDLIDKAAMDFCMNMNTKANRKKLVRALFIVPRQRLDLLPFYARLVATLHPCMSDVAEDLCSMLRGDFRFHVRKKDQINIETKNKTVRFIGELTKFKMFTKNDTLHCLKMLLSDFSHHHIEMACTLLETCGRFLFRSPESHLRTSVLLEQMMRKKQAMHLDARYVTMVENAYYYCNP

[6] = biological target: UPF2 MIF4G-D2-3 (UniProt Q9HAU5)
UPF2 MIF4G-D2-3, sequence (Q9HAU5 455-1054): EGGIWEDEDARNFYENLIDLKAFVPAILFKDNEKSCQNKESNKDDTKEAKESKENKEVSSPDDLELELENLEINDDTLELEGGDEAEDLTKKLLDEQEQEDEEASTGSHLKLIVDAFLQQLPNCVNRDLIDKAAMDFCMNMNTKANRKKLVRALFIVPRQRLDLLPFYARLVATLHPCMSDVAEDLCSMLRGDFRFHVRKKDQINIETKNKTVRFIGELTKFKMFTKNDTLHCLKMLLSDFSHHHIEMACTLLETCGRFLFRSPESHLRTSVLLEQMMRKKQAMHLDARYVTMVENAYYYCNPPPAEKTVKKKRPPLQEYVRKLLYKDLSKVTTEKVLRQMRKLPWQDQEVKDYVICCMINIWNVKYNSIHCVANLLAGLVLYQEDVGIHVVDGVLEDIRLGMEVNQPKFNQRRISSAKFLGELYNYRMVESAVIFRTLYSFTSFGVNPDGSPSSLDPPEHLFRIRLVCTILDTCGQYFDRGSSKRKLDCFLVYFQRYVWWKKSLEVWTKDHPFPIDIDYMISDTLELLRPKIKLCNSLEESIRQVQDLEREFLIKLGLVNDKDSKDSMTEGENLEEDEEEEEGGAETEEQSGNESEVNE

UPF2L, sequence (Q9HAU5 121-1227): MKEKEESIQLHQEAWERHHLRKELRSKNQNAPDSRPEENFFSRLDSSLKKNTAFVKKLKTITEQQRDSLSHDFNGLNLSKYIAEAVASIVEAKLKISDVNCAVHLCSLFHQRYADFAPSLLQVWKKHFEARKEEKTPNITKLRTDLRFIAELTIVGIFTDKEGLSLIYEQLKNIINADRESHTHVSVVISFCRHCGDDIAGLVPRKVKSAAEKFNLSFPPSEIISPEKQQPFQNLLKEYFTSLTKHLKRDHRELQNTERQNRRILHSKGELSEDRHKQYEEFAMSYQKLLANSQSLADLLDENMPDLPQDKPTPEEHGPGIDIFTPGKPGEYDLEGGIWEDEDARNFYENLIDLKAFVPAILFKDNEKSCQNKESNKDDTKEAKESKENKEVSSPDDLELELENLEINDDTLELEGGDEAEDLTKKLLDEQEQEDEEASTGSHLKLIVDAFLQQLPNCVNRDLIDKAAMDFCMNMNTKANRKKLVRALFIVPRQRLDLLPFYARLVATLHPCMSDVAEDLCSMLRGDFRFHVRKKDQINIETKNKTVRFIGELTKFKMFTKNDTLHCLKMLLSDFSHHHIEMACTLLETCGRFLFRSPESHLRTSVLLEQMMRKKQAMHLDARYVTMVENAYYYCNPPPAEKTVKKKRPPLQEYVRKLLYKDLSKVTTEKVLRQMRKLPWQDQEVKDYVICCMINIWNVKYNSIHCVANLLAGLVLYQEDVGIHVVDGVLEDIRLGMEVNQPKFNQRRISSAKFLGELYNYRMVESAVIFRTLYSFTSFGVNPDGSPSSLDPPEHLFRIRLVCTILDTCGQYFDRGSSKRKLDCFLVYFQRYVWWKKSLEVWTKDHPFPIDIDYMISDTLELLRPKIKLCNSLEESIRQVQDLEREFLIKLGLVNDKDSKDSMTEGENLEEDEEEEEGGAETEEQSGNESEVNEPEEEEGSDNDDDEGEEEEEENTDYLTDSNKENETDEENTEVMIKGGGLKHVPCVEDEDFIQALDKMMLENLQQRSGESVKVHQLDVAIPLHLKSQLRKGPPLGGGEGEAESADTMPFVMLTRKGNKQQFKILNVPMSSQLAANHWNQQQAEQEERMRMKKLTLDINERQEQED
UPF2 MIF4G-D3, sequence (Q9HAU5 761-1054): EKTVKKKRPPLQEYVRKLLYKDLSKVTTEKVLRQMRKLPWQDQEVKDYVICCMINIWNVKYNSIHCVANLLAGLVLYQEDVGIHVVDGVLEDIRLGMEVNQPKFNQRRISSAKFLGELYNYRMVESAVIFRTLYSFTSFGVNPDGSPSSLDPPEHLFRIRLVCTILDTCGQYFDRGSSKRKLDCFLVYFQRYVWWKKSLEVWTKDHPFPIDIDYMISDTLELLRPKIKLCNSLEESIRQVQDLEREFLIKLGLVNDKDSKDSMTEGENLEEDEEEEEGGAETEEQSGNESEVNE
UPF2 MIF4G-D1, sequence (Q9HAU5 120-486): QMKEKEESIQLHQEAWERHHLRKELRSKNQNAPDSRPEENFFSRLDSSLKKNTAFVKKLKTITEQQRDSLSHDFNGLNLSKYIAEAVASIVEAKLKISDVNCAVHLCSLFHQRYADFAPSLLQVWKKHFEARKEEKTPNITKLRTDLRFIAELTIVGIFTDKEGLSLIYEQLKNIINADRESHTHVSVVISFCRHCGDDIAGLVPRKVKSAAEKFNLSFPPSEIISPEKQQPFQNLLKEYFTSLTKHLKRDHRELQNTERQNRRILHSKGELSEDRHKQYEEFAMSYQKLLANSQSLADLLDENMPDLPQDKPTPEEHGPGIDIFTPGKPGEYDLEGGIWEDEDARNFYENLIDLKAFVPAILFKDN

13 nt PYR ss-RNA
pKd [1]: 6.28 | pKd [2]: 6.19

24 nt ss-DNA
pKd [2]: 6.37

24 nt ds-DNA
pKd [2]: 6.48

24 nt ss-RNA
pKd [3]: 5.85 | pKd [4]: 6.11 | pKd [5]: 5.46 | pKd [6]: 6.28 | pKd [1]: 6.16 | pKd [2]: 6.87

13 nt PUR ss-RNA
pKd [1]: 5.89 | pKd [2]: 6.17

24 nt ds-RNA
pKd [2]: 6.34
